Reference: patent publication US20130089516A1
Values joined by “and” are separate entries in the source; they are usually repeats but may differ in a detail not shown here. Equal values may be shown once. Blank lines part the entries; values can stand above or below the substance they belong to.

Experiments:
[1] = target: mouse IL-2/IL-2Rα fusion proteins (2× and 4× linker lengths); assay: sandwich ELISA (JES6-1A12 capture, JES5H4 detection by the general methods), PSA-treated against buffer-treated fusion protein
[2] = target: recombinant human IL-2 (Peprotech) (human) (UniProt P60568); assay: modified phage ELISA, human IL-2 coated; 2 µg/ml MQ1-17H12 added, then scFv-2 phage (competitor)
[3] = target: IL-2 portion of the mouse IL-2/IL-2Rα fusion proteins (mouse) (UniProt P04351); assay: cell-based or functional assay
Chain of IL-2 portion of the mouse IL-2/IL-2Rα fusion proteins (mouse) (P04351 21-169 limits assumed): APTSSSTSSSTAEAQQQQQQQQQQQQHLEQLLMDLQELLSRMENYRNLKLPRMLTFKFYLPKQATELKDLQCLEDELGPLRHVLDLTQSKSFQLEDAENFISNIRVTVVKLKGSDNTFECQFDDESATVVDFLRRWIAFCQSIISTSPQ

Chain of recombinant human IL-2 (Peprotech) (human) (P60568 21-153 limits assumed): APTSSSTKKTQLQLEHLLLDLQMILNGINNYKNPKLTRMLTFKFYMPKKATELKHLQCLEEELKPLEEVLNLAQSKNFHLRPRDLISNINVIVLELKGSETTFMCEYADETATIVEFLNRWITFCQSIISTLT

- fold increase in the apparent amount of IL-2 detected after PSA cleavage [1]: 2 fold and 4 fold
Substance: rat anti-mouse IL-2 monoclonal antibody JES6-1A12 (BD Pharmingen)

- percent blocking of scFv-2 phage binding [2]: 70%
Substance: neutralizing anti-human IL-2 monoclonal antibody MQ1-17H12 (eBioscience)

- attenuation of IL-2 biologic activity in the intact uncleaved fusion protein against the equivalent amount of free IL-2, CTLL-2 bioassay [3]: > 60 fold
- increase of biologically active IL-2 after PSA cleavage of the fusion protein with the 2× linker, CTLL-2 / MTT assay [3]: 3.5 fold
- increase of biologically active IL-2 after PSA cleavage of the fusion protein with the 4× linker, CTLL-2 / MTT assay [3]: 9 fold
Substance: IL-2Rα portion of the mouse IL-2/IL-2Rα fusion proteins (soluble form of the alpha chain of the IL-2 receptor) (from UniProt P01590 22-236)
